Laboratory results taken from the RNAGym collection of RNA variant scans (doi:10.1073/pnas.2313332121).

B1: TPR t1 (parent)
chain: GACCAAUCUGCCCUCAGAGCUCGAGAACAUCUUCGGAUGCAGAGGAGGCAGGCUUCGGUGGCGCGAUAGCGCCAACGUCCUCAACCUCCAAUGCAUCCCACCACAUGAUGAUGCCUGAAGAGCCUUGGUUUUUUG

Variants of: B1
Experiment: polymerase ribozyme fitness, log enrichment relative to wild type (log ratio); higher = more active; in vitro selection for triplet polymerase activity
Method in brief: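 One round of in vitro selection, in triplicate, was applied to PCR-built, transcribed mutant libraries of each subunit of a heterodimeric triplet polymerase ribozyme. The steps were annealing with a biotinylated primer, partner subunit and triplets, incubation frozen at −7 °C, gel excision of extended constructs, streptavidin-bead capture and RT-PCR. Fitness is the logarithm, base 2, of genotype enrichment over wild-type enrichment from inverse-variance-weighted replicate averages of Illumina-sequenced inputs and outputs, keeping genotypes with ≥10 input reads and ≥1 read per output.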

Row | Variant | polymerase ribozyme fitness (log ratio)
1 | U21G A105U G120A | -2.92
2 | A29U C94A | -1.79
3 | A29G C31G U55G C124U | -6.79
4 | G47U G120C G127C | -1.64
5 | C11G C70U G122U | -0.676
6 | U81C C115A G128C U131G | -4.42
7 | C31G U38G G51U G52C C94G G120U | -6.47
8 | C56A A95C U106A G128A | -3.3
9 | C12U C22U A46U | -4.76
10 | C8U A118G | -0.114
11 | U9G C34U A68G U78C C97U A111U | -6.62
12 | A18U U21A A24G U55G | -3.96
13 | U14G G61U C86G C115G | -5.92
14 | U38G G69C C86U C115A | -3.28
15 | C13A G42A G69U A111C U116A U129G | -4.99
16 | C20U U32G C73G C97U C123U | -5.73
17 | C8U C70A C73A C97U | -3.27
18 | G10C C40G A66U | -2.18
19 | A29G G58C G120U | -1.73
20 | U59A G60U C89G C97U | -2.98
21 | G63A G120A G135C | -0.591

Row | Variant | polymerase ribozyme fitness (log ratio)
22 | C15U C70U U81A G113A G117A | -4.22
23 | A5U C15U G48A C70A | -3.43
24 | G48C C62U A75G | -1.21
25 | G17C C72U C101A C115A C123A | -5.23
26 | C8A G61U | -0.146
27 | C49G A119U | -0.491
28 | C86G C101U | -0.616
29 | G42U A91C G117C | -3.63
30 | C12U A83C G122U | 0.68
31 | C3G G63U | -2.85
32 | A6C C11A A18C C73U | -4.87
33 | G44U G45U G60C C72U C101U A121G U131C | -0.75
34 | C12U G17U A50G U112A | 0.845
35 | G60A A95G | -0.00276
36 | C70G A95U C114A | -6.28
37 | C13U C40U G69U C88G | -2.27
38 | C34U C72U | -4.07
39 | C79U A95C | -0.848
40 | C49G G61A U81C G120C | -3.67
41 | G10U U14A G113C G122A | -3.62
42 | G47C G52C C73U G120U C123A | -2.99

Row | Variant | polymerase ribozyme fitness (log ratio)
43 | G45A C53G U59G C104A U112A | -0.739
44 | C11A G45U G63U | -3.75
45 | C56G G61A G77A | 0.026
46 | G122U C124G | -0.864
47 | C4A G48A G57A C85U C101A | -4.21
48 | G61A C70U | -0.854
49 | G71A C115A | -2.31
50 | C20U C62U | -1.15
51 | A46U U59C U109A | -5.97
52 | U9G C101U | 0.459
53 | G60U G77A U131A | -0.885
54 | U32C C56A U116G G122A U132C | -3.25
55 | G47A G58A G60A C79U | -2.31
56 | C62U A90C | -2.52
57 | C31A C72U U92G G113U | -6.05
58 | C4U C12A C53A C56U C89G A121G | -1.89
59 | U59A A74G C114G U126A G128A | -3.97
60 | U38A A46U | -2.42
61 | G45U A50U | -2.62
62 | G48C C56G C101U U125G | -1.87
63 | G39U A41C C94U C124A | 0.616

Row | Variant | polymerase ribozyme fitness (log ratio)
64 | G10C G39C C49G A111U | -4.94
65 | A2G G10A C53U C62U A90G | -0.379
66 | A2G C56G C89G A90C | -2.84
67 | A2C C115A | -1.3
68 | C12U C13G A37U U54G C73U C123U | 1.09
69 | A46C C79U C101U G113U | -4.4
70 | C88G U92A | -4.09
71 | A37G C49G U81G | -2.07
72 | C73A C101G | -1.26
73 | G42A C70A C85U | -4.88
74 | G61U G63C | -3.05
75 | A29G C85G C88U | -2.58
76 | U54A U81C A90G C123U | 0.715
77 | A18U C85A | -4.19
78 | A37G G61C | -1.44
79 | C34U A100C | -3.69
80 | C31U C53U C72U A103U | -6.73
81 | C56U C86U | -0.265
82 | G44C C53U G61U C124U | 0.752
83 | C40G U112C | 0.984
